Data from the nanobody polyreactivity screen of Harvey et al. (2022).

assay: yeast display, Sf9 membrane polyspecificity reagent, FACS + sequencing; frameworks hold sequencing errors
Method in brief: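 Galactose induction of a Saccharomyces cerevisiae BJ5465 synthetic nanobody display library ran 36–48 hours. The cells were then stained for 1 hour at 4 °C with 10% biotinylated, detergent-solubilized Sf9 membrane reagent, pulled down on streptavidin microbeads and FACS-sorted into low and high (top ~1%) gates on expression and reagent-binding fluorescence. Labels for polyreactivity follow the gate of origin.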

Row | Sequence | polyreactivity (PSR sort gate)
1 | QVQLVESGGGLVQAGGSLRLSCAASGSTFRAYAMRWYRQAPGKETELVAAISSSGGSTYYADSVKGRFTISRDNAKKTVYLQMNSLKPEDTAVYYCAARGWWSRYGYWGQGTQVTVSS | high polyreactivity
2 | QVQLVESGGGLVQAGGSLRLSCAASGITLGRYAMGWYRQAPGKERELVAAISRSGGSTYYADSVKGRFTISRDNEKNTVYLLMNSLKPEDTAVYYCNRRVYPTSDYDYWGQGTQVTVSS | high polyreactivity
3 | QVQLVESGGGLVQAGGSLRLSCAASGGTFDWNAMGWYRQAPGKERELVASISSSGGSTYYADSVNGRFTISRDNAKNTVYLQMNSLKPEDTAVYYCNAERKIIAYLWWYDYWGQGTQVTVSS | low polyreactivity
4 | QVQLVESGGGLVQAGGSLRLSCAASGSTFGSYVMGWYRQAPGKERELVAAIRWSGTSTYYADSVKGRFTISRDNAKNTVYLQLNSLKPEDTAVYYCNATPNYNRGDHTPMDYWGQGTQVTVSS | low polyreactivity
5 | QVQLVESGGGLVQAGGSLRLSCAASGSTFHWYDMGWYRQAPGKERELVAGINTSGDGTYYADSVKGRFTISRDNAKNTVYLQMNSLKPEDTAVYYCAAEYYTYWGYEDDYWGQGTQVTVSS | low polyreactivity
6 | QVQLQESGGGLLQAGGSLRLSCAASGNFFDADIMGWYRQAPGKERELVASITDGGSTNYADRVKGRFTISRGNTKNTVYLLMNCLKPDDTSVYYCAAIAYPDIPTYFDYNSDYFYGGQGTQVTVSS | high polyreactivity
7 | QVQLVESGGGLVQAGGSLRLSCAASGYIFYRNAMGWYRQAPGKEREFVAAISSSGVSTYYADSVKGRFTISRDNAKNTVYLQMNSLKPEDTAVYYCAASYLTWKRRYDYWGQGTQVTVSS | high polyreactivity
8 | QVQLVESGGGLVQAGGSLRLICAASGSTYRGYAMGWYRQAPGKERELVAAISYISGGTYYADSVKGRFTISRDNAKYTVYLQMNSLKPEDTAVYYCAVGSHSRSSNSYYYWGQGTQVTVSW | low polyreactivity
9 | QVQLVESGGGLVQAGGSLRLSCAASGFTFDRYTMGWYRQAPGKEWELVAVIRRGGSTYYADSVKGRFTISRDNAKNTVYLQMNSLKPEDTAVYYCNALSALAVEDGYWGQGTQVTVSS | low polyreactivity
10 | QVQLVESGGALVQAGGSLRLSCAASGSTFFHYAMGWYRQAPGKERELVAAIDSNGGSTYYADSVKGRFTISRDNAKNTVYLQMNSLKPEDTAVYYCAADDLAEFEYDYWGQGTQVTVSS | low polyreactivity
11 | QVQLVESGGGLVQAGGSLRLSCAASGFIFYKYAMGWYRQAPGKERELVAAITRRGGSTYYADSVKGRFTISRDNAKNTVYLQMNSLKPEDTAVYYCAKYIYGYKDSPLGDDYWGQGTQVTVSS | high polyreactivity
12 | QVQLVESGGGLVQAGGSLRLSCAASGLILYHYAMGWYREAPGKERELVAAISSGGITHYADSVKGRFTISRDNAKNTVYLQMNILKPEDNAVYYCNAVSYYWHDFDYWGQGTQVTVSS | high polyreactivity
13 | QVQLVESGGGLVQAGGSLRLSCAASGYTFRYYGMGWYRQAPGNERELVADINSNGVRTYYADSVKGRFTISRDNAKNTVYVQMNSLKPEDTAVYYCNKDWGRYRYDYWGQGTQVTVSS | high polyreactivity
14 | QDQLEESGGGLVQAGGSLRLSCAASGRTFFHYAMGWYRQAPGKERELVAGISSGGRTTYADSVKGRFTISRDNAKNTVYLQMISLKPEDTAVYYCAASYIVWLTRGAPRKRFDYWGQGTQVTVSS | high polyreactivity
15 | QVQLVESGGGLVQAGGSLRISCAASGFIFASYTMGWYRQAPGKERELVAAISRAGSTYYADSVKGRFTISPDNAKNTVYLQMNSLKPEDTAVYYCNAVSWRTSRYDYWGQGTQVTVSS | high polyreactivity
16 | QVQLVESGGGLVQPGGSLRLSCAASGSIDCYGMGWYRQAPGKERELVAIITSVYSTYYADSVKGRFKISRDNAKNTVYLQMNSLKPEDTAVYYCAATAAYFYGQFYYWGQGTQVTVSS | high polyreactivity
17 | QVQLVESGGGLVQAGGSLRLSCAASGSIYTQNAMGWYRQAPGKERELVADISRGSTYYADSVKGRFTISRDNAKNTVYLQMNSLKPEDTAVYYCAADDIAHPSFVSTVDVGMDYWGQGTQVTVSS | low polyreactivity
18 | QVQLVESGGRLVQAGGSLRLSCAASGGIIRGYAMGWYRQAPGKEWELVATIRSSGRTNYADSVKGRFTISRDNEKNTVYFQMNSLKQEDTAVYYCAAVVRQYGFDYWGQGTQVTVSS | low polyreactivity
19 | QVQLVESGGGLVQAGGSLRLSCAASGRIFYDYAMGWYRQAPGKEWELVAAISGSGGSTYYADSVKGRFTISRDNAKNTVYLQMNSLKPEDTAVYYCNRYTTRYYPGGDYWGQGTQVTVSS | high polyreactivity
20 | QVQLVESGGGLVQARGSLRLSCAASGFTFSRYAMGWYRQAPGKERELVAAITRSGGSTYYADSVKGRFTISRDNAKNTVYLQMNSLKPEDTAVYYCAKRAASGFRWDSGYWGQGTQVTVSS | high polyreactivity
21 | QVQLVESGGGLVQAGGSLRLSCAASGFTFAYYAMGWYRQAPGKERELVAAITRGGGRTFYADSVKGRFTISRDNAKNTVYLQMNSLKPEDTAVYYCAAVKDTTNSRGYGYWGQGTQVTVSS | high polyreactivity
22 | QDQHVESGGGLVQAGGSLRLSCAASGSIFPWYTMGWYRQAPGKERELVASITKSGARTYYADSVKGRFTISRDNAKNTVYLEITSLKPEDTAVYYCAASLWQRAKVRYQYWGQGPQVTVSS | high polyreactivity

Row | Sequence | polyreactivity (PSR sort gate)
23 | QVQLVESGGGLVQAGGSLRLTCAASGSITSINAMGWYRQAPGKERELVAAINWSSGSTYYADSVKGRFTISRDYAKNTVYLQKISLKPEDTAVYYCAVDRYFFAGYYGYEYWGQGTQGTVSS | high polyreactivity
24 | QVQLVESGGGLVQAGGSLRLSCAASGITFTVNAMGWYRQAPGKERELVAAITYSGGNTYYADSVKGRFTISRDTAKNTVYLQMNSLKPEDTAVYYCAADNWPWPEKPDKSILYDYWGQGTQVTVSS | low polyreactivity
25 | QVQLVESGGGLVQSGGSLRLSCAASGRIFSYYTIGWYRHEPGKEREIVAAITWSGGSTYYADSVKGRFTISRDNAKNTVFLQLNRLKPEDTAVYYCNRVAPHDLRNRQEDNYWGQGTQVTVSS | low polyreactivity
26 | QVQLVESGGGLVQAGGSLRLSCAASGIIFRYYAMGWYRQAPGKERELVAAISSSGVSTYYADSVKGRFTISRDNAKNTVYLQMNSLKPEDTAVYYCNAVIWVRQYFSRSSSNYWGQGTQVTVSS | high polyreactivity
27 | QVQLVESGGGLVQAGGSLRLSCAASGGTFYHYAMGWYRQAPGKERELVAAISWGGGSTYYADSVKGRFTISRDNAKNTVYLQMNSLKPEHTAVYYCAARRGFRFRDYYWGQGTQVTVSS | high polyreactivity
28 | LVQLVESGGGLVQAGGSLRLSCAASGSIFPPYAMGWYRQAPGKERELVAARSNGGSTNYAYAVKGRFTISRDNPNYTVYLQMNSLIPEDTAVYYCVARQYYLGWFPYWRIFDYWGQGTQVTVSS | high polyreactivity
29 | QVQLVESGGGLVQAGGSLRLSCAASGFIFEYNTMGWYRQAPGKERELVAAISRRGGSTYYADSVKGRFTISRDNAKNTVYLQMKSLKPEDTAVYYCATDPGARVHYPTGDYWGQGTQVTVSS | high polyreactivity
30 | QVQLEESGGGLVQAGGSLRLSCAASGRIFWANAMGWSRQAPGKERELVAAINRRTGITYYADSVKGRFTISRDNAKNTVYLQMNSLKPEDTAVYYCNAGSSPIRQYYGQVWKKGGYWGQGTQVTVSS | high polyreactivity
31 | QVQLVESGGGLVQAGGSLRLSCAASGSTFGDYAMGWYRQAPGKERELVAAISFSDDSTYYADSVKGRFTISRDNAKNTVYLQMNSLKPEDTAVYYCAKEAEYSTPGGDYWGQGTQVTVSS | low polyreactivity
32 | QVQLVESGGGLVQAGGSLRLSCVASARTFFRYAMGWYRQAPGKERELVADITRGGSTYYADSVKGRFTISRDNAKNTVYLQMNSLKPEDTAVYYCNADGRVQRKYDYWGQGTQVTVSS | high polyreactivity
33 | QVQLVESGGGLVQAGGSLRLSCAASGLILSAYAMGWYRQAPGKERELVAAISKRGGSTYYADSVKGRFTISRDNAKNTVYSQMNSLKPEDTAVYYCAADYTKHYWGQGTQVTVSS | high polyreactivity
34 | PVQLVESGGGLVQAGGSLRLSCAASGSIFGYYAMGWYRQAPGKERELVAAISSSGASTYYADSVKGRFTISRDNAKNTVSLQMNSLKPEDTAVSYCIAARRYPTRGGYWGQGTQVTVSS | high polyreactivity
35 | QVQLVESGGGLVPAGGSLRLSCAASGLTFYYYAMGWSRQAPGKERELVAGISGSDGSTYYADSVKGRFTISRDNAKNTVYLQMNSLKPEDTAVYYFAAEYYYPWPLYYITDGIYDMYYWGQGTQVTVSS | low polyreactivity
36 | QVQLVESGGGLVQAGGSLRLSCAASGRTFLFNTMGWYRQAPGKERELVAAITRRGGSTYYADSVKGRFTISRDNAKNTVYLQMNSLKPEDTAVYYCNAPAYSPPGYYWGQGTQVTVSS | low polyreactivity
37 | QVQLVESGGGLVQAGGSLRLSCAASGSIFAYNAMGRYRQAPGKEREYVAAISQSGGRTYYADSVKGRFTISRDTSKNTVYLQMNSLKPEDTAVYYCATDGIRLTRHRDYDYWGQGTQVTVSS | low polyreactivity
38 | QVQLVESGGGLVQAGGSLRLSCAASGFTFYSYAMGWYRQAPGKERELVAAISWSGSRTYYADSVKGRFTISRDNAKNTVYLQMNSLKPEDTAVYYCTKYLPRHRYDFDYWGQGTQVTVSS | high polyreactivity
39 | QVQLVESGGGLVQAGGSLRLSCAASGFIFLYNAMGWYRPAPGKERQLVAAITSSGATTYYADSVKGRFTISRDNAKNTDYLQMNSLKPEDTAVYYCAARYTGRNGGSTTPEYDYWGQGTQVTVSS | low polyreactivity
40 | QDQHVESGGGLVQAGGSLRLSFAASGRTFISYTKGWYRPAPGKERELVAAINFSGGITYYADSVKGRFTISHDNAMNTVYLQMNSLKPVDTAVYYCAADWRTRYDYWGQGTQVTVSS | low polyreactivity
41 | QVQLVESGGGLVQAGGSLRISCAGSGSIFSRNAMGWYSQAPGTERELVAAITGSGSSTYYADSVKGRFTISRDNAKNTVYLQMNSLKPEDTAGYYCNAARVYLSEWGQGTQGTVSS | high polyreactivity
42 | QVQLQETGGGLFQAGVSLRLSCATSGSIFWGNAMGWYRQSPGKDRELVAAISWGGGRTYYADSVKGRFTISRDNAKITVYLQINSLKPEDTAVYSCNTRYPYVVSTGYDYWGQGTQVTVSS | high polyreactivity
43 | QVQLVESGGGLVQAGGSLRLSCAASGRTISYAMGWYRQAPGKEREMVAAIRYRGGSTYYADSVKGRFTISRDNAKNTVYLQMNSLKPEDTAVYYCAAQDSYTPPILFRRGYLRYDYWGQGTQVTVSS | low polyreactivity
